The source of these data is the DeepSol protein solubility set.

The data set is described as follows: soluble on expression in E. coli; label from the status in PepcDB or PDB records.
Regarding “GFIDTHLHVESSLVTPFEFDRCVTPRGITTAICDPHEIANVCGLEGIRYFLEASAHLVMDLRVQLSSCVPSTHMETAGAALEAKDLAPLMDHPRVIGLAEFMNFPGVLMKDPGCMAKLEAFRGRHIDGHAPLLRGKDLNGYIAAGIRTEHEATTAEEALEKLRKGMRVLIREGSVSKDLHALVSILTERHAPYLCLCTDDRNPLDIAEHGHIDHMIRTAIRLGAPPLAVYRAASLSAADAFGLKDRGLIAPGRRADIAVLD”, the “soluble on expression in E. coli” value is on record as “not soluble”. As to “MGSDKIHHHHHHMNSINKNQPEKNHEDLKNKDSIDKIIELASDQTCFLCTTQGAKGNARPMAVQKVDKQGNIWFLSASDSNQNKEIQENSSVNLYFKGNQHSDFMHLYGEATVLRDETIIKELWNPVLKTWFTEGENDPRITIIKFTTKEGYYWDTKHGNFIAGIKMLIGAATGQTLDDSIEGSLQNQPVHNTHISHG”, the “soluble on expression in E. coli” value was “not soluble”. With “MNNAALRHWKQQQRARLRELRQQVPVTQRMLWSDAITAVLTQGFPFLENQRIGFYWPHQGEYDPIPAMTFLRTRGATLALPEVISKDEPLRFIEWWPEAPMKKDIYGIPFPDNTRGITVDSIIIPLLGFDEQGYRLGYGSGYFDRTLAAMSPRPLAIGVAFEILRLPTIHPQQHDIPMDYIVTEQSILHRTDTGLVPLTAPIVQSETALEHHHHHH” the entry was “soluble”. With “MAQQQNPYYGTGFYQPSGTYVQPQQMTQQQQQAMQQQTAQAAQAQYAISQGMLPLEQSYIENILRLNKGKQATVVMTYERGSSLGTQSYTGIIEAAGRDHIVISEPQSGKRYLLLMIYLDYVEFPEEITYLPSQQATYTPRP” the entry was “soluble”; with “MAGWETHKKAQWLCQLRKGMSMLPDTLSEQFVLYLDVLDGGSFSAAARKHPLTPSAVARRMDALERAVGSTLLVRTTHAVRATPAGLAFADRARRIVTELRLARAEAVSLSTAPQGLIRIDAPVPFGRRHLAPAVADFLKANPGLDVQLRLIGSFIDLQGEHLGEVDLVLRAGPLPDSRLVATSLAPMVRVVCASPEYLREHGVPASPGELPEHAGIDWDNLSPPYAWRFQHDGKLQHLRPKRARLATNNAEAMVDAALAGLGIAHLPTWLCSEYLLRGELQALFCDDGLPAAEPTCIYALRLEREASSRTRLLLAFLRERFGFPPPWDQALQQRLGER”, “not soluble”. For “MYVTIVYASVKTDKTEAFKEATRMNHEQSIREPGNMRFDILQSADDPTRFVLYEAYKTRKDAAAHKETAHYLTWRDTVADWMAEPRKGVIYGGLYPTGDD”, the “soluble on expression in E. coli” value is listed as “soluble”. The result for “MAHHHHHHMFPASGSGPGVAGSALKGFKGMHHKPPNYPYPYVVGVDGAGEVESVGRKVTGLKAGDRVMFHSSLTNAHGGSLCEYAVMEESVAVPIPADGARPFSYEEAAAIPCATWTAYVALFDKLRIEPGRSIFVDGASGAVGSCAVQLAHHMGLYVFASCSPSNADYVRSIGADQVLNYHDGIEMVDQILDATEGYGVDYYLAVTNTQDAESFTDALRFGGAVCLLSGVLIPNSNVLFRRQLSVHYVFLNGLHGHPLTRPQLRYIGDQVAKLYQSGAFRLDVEVLPFAEAAKALDRSATGNVNHKKLIVQVASP” reads “not soluble”.

With “MRVKIRRELLEYLLELAKSFYPREVAGFLRMKDGVFEEVLIVPKGFFGESSVYFDLTLMPHDESIKGTFHSHPSPFPYPSEGDLMFFSKFGGIHIIAAFPYDEDSVKAFDSEGREVELEVID”, the “soluble on expression in E. coli” value is “soluble”. The result for “MGLSCTDDWRVIDLPGSFITVTNLNQFTLNGDGFAARMEMTLVAPDHGGDSDLIAMGELIEQAISGVRSLGGAIESIELNQQVTPPHGGKAPASTMTFTLFYDMENEE” reads “not soluble”. As to “MAHHHHHHSLIDCRYYQQNECRSCQWLEIPCSQQLTEKQYHLKQQLISINYDEAQWVAPFQSNQQGFRNKAKMVVSGSVERPILGILKNPNDPQSAIDLCDCPLYPTHFSAIFSILKDFIGRAGLVPYNIAKQKGELKYILLTESIATEKLMLRFVLRTENKLPLIRRELPKLLEKLPHLEVISINLQPQHAAILEGEQEIFLTEQQFLPENFNGIPLFIRPRGFFQTNPKVAAGLYATAQQWVAEFPIYNLWDLFCGVGGFGLHCAKALQEKWGKPIKLTGIEISSSAILAASHSAKILGLEHVNFQSLDAASVIENKNENKPDLVIVNPPRRGIGKELSEFLNQIQPHFILYSSCNAMTMGKDLQHLTCYKPLKIQLFDMFPQTSHYEVLVLLEREG”, the “soluble on expression in E. coli” value is reported as “not soluble”.

For “MGSDKIHHHHHHMIIRKICTTLPVILPEPETIMTVTRPRAERGAFPPGTEHYGRSLLGAPLIWFPAPAASRESGLILAGTHGDENSSVVTLSCALRTLTPSLRRHHVVLCVNPDGCQLGLRANANGVDLNRNFPAANWKEGETVYRWNSAAEERDVVLLTGDKPGSEPETQALCQLIHRIQPAWVVSFHDPLACIEDPRHSELGEWLAQAFELPLVTSVGYETPGSFGSWCADLNLHCITAEFPPISSDEASEKYLFAMANLLRWHPKDAIRPS”, the “soluble on expression in E. coli” value is “not soluble”.

With “MGSDKIHHHHHHMNLFSPHLKRNELIKFAKELDFSKSQDLLINVHRNHAFEGVQSIIAPFLHFANLRAEFNFSSYDDSLSFDNFKEASLELLWLDLTRYKNNVQNFIEERLLELRKISQNPILVLSLGEFKTDKKILNCEIFNIEKLIKEYFDEEDILDLAKEELTGSKLNNKALIFLAQILGLSLIPALVKPALKALVLDLDNTLYQGILGEEGIDNLNLSPLHKTLQEKIKTFKKQGFLLALASKNEEKDAKKLFEIRKDFILQWDDFDARMINWEPKGENILKIAKKFNINTNAMLFIDDNIAELENTKITGVKTLLCDENILYKIKLFPNLLKLSNTKEDQIRAKDIAANALREELKSLSDEEYFQNLEISLNFSKNDLQNIPRISELLGKTNQFIANYTRLNQEKVAQHMQKELIVSVSMSDKLSDSGIIAIFVFSCKEGNLFIDDLCISCRALGRKLETRMFFKAFELALHFFDLKNNNARLYYQKGERNMPFLSFLEQISKEFEKNSALIPFQNLNFKGLIIHEN”, the “soluble on expression in E. coli” value was “not soluble”. As to “MGSDKIHHHHHHMKIHFVGIGGIGMSAVALHEFSNGNDVYGSNIEETERTAYLRKLGIPIFVPHSADNWYDPDLVIKTPAVRDDNPEIVRARMERVPIENRLHYFRDTLKREKKEEFAVTGTDGKTTTTAMVAHVLKHLRKSPTVFLGGIMDSLEHGNYEKGNGPVVYELDESEEFFSEFSPNYLIITNARGDHLENYGNSLTRYRSAFEKISRNTDLVVTFAEDELTSHLGDVTFGVKKGTYTLEMRSASRAEQKAMVEKNGKRYLELKLKVPGFHNVLNALAVIALFDSLGYDLAPVLEALEEFRGVHRRFSIAFHDPETNIYVIDDYAHTPDEIRNLLQTAKEVFENEKIVVIFQPHRYSRLEREDGNFAKALQLADEVVVTEVYDAFEEKKNGISGKMIWDSLKSLGKEAYFVEKLPELEKVISVSENTVFLFVGAGDIIYSSRRFVERYQSSKSSPSRVLGSNK”, the “soluble on expression in E. coli” value was “soluble”. As to “MGSDKIHHHHHHMQVGDRIVVRQEEFDTIGHVLSVDPLIVRPHARGGLPSNAEPVRIDNPLMIKRLSPRTVRNADIRAIEVATAKAFPGIEHTWCGQWLLRAGDGVTERSNSAAPLGPQALFTPVPYEEIKEFYRRHNLPALILVPERIAPAIPDDGPEIIVMTHPLDNVSEIDDVHAEFLDQPDDDWLELYHFRGKALPRHALELLRTTIDGRMCFGRLKRDGKTVAITRGTITDGYLGYSAVEVAPEYRRQGLATELGAAMLAWGKAHGAHTAYLQVIESNAAGIGLYHKLGFVEHHRHKYVRVS”, the “soluble on expression in E. coli” value was “not soluble”. The result for “MIDKVRAFIHRHQLLSEGAAVIVGVSGGPDSLALLHVFLSLRDEWKLQVIAAHVDHMFRGRESEEEMEFVKRFCVERRILCETAQIDVPAFQRSAGLGAQEAARICRYRFFAELMEKHQAGYVAVGHHGDDQVETILMRLVRGSTSKGYAGIPVKRPFHGGYLIRPFLAVSRAEIEAYCRQMGLSPRCDPSNEKDDYTRNRFRHHIVPLLRQENPRLHERFQQYSEMMAEDEQFLEELAADALNKVMEKQHRDAALSIGPFLELPRPLQRRVLQLLLLRLYGGVPPTLTSVHIGHILMLCERGRPSGMIDLPKGLKVIRSYDRCLFTFDAESGEKGYWFELPVPALLPLPNGYAIISEFGEHYPRKQAGNDWFVVDPASVSLPLRVRTRRRGDRMVLKGTGGTKKLKEIFIEAKIPRMERDRWPIVEDADGRILWVPGLKKSAFEAQNRGQARYILLQYQAMNS” reads “soluble”. With “MTENTLDPAADLLERLGDKRFRTILADPPWQFQNRTGKMAPEHKRLNRYGTMSLEAIAGLPVERLTADTAHLYLWVPNALLLEGLKVMEAWGFTYKTNLVWHKIRKDGGPDGRGVGFYFRNVTELVLFGVRGKNARTLAAGRRQVNFLATRKREHSRKPDEMYGIIESCSPGPYLELFARGARDRWSVWGNEADENYYPRWNTYANHSQAEICPFEAAALEHHHHHH” the entry was “soluble”. Regarding “TQHIESHTHVVSLEEIPVERNLAQLTGWTEGAPVWRLVRQREIEGEVDILDIDYLIKEIVPELPKHRAEDSIFDYLENDLGLAISYAQKEITVEPLTEMDKQLIGEVEGNHVVVVRSIMNLEDTRCFGYTESRHRLNKFKFVEFARRRKL”, the “soluble on expression in E. coli” value was “soluble”. With “ASNITRINEIIEIAVNNKRKVCLLGKSMDVNVNISRKIGLMDIDSNDIVEVRDIKNYPDRSILILCTGSQGEDSAALNTMARGKHNWVSLKSTDTIIMSSNPIPGNYAAVENLLNELSKYGVTIFENSPNMKLHASGHATQQELQLMLNLVFPRYLIPIHGEYKMMRTIKNIAQECGINGDDVGLLANGQVMYLIDGKLYYSGEVINADPIYIESRNSSPDLARVIKQRQILSREGMFAVIVVFDKNNNILGMPTLITRGCFFALDSSPLMTKITHSIKRGLENVIQNKRFNTREQMIKELKRVCKETVSYFIWKNKSRNPLISTVLSWV” the entry was “soluble”. With “MGHHHHHHSHMEVVLPLDPAVPAPLCPHGPTLLFVKVTQGKEETRRFYACSACRDRKDCNFFQWEDEKLSGARLAAREAHNRRCQPPLSRTQCVERYLKFIELPLTQRKFCQTCQQLLLPDDWGQHSEHQVLGNVSITQLRRPSQLLYPLENKKTNAQYLFADRSCQFLVDLLSALGFRRVLCVGTPRLHELIKLTASGDKKSNIKSLLLDIDFR” the entry was “not soluble”; with “MGFAKPPWGGKLKGVVRILGGKARGVALKVPASARPSPVRLRKALFDYLRLRYPRRGRFLDLFAGSGAVGLEAASEGWEAVLVEKDPEAVRLLKENVRRTGLGARVVALPVEVFLPEAKAQGERFTVAFMAPPYAMDLAALFGELLASGLVEAGGLYVLQHPKDLYLPLGERRVYGENALTLVEV”, “soluble”. The result for “MGSDKIHHHHHHMEPIVRLENVTKNYRGVPAVKNVSFDLRKGEIHALLGENGAGKSTLTKIIAGVVDATSGKMFHKGREIAYASPHAALEAGIAMVFQETSLVPSMTVAQNLYLGTEKFLNRLRGTYIAAQQFLQSLNFPVDPNAMVATLGAAKRQMVEIARAVHHNAEIIIFDEPTATLTPEEKRHFFALIRRLKASGVSIVFISHALEEALAIADRITILRDGELVITDDTSAFDRDKIVAAMVGRTLSGQIYRQRDEARLRKAGKKVLSVQDISMSNVVRNNSFSIFEGQITGVFGLIGSGRTETFKIVSGIYKRDFLRGGAIELDDRPVRYLVPSEAVADGIVYVTEDRKSEGIFETMGIAENLFGGLLAAGREKAWVINQQEMRQLSAQWTKTLNIKAINDNARVVELSGGNQQKVVIGKGLVQQPRIVIFDEPTRGVDVGAIAEIHQIINRLADEGLAVVVISSYLPEIMNLSDRILVCRQGRIVEEYSPAEATEEKIMYAAVH” reads “not soluble”.
